According to the supplement of paper PMC6757056:
± gives the standard deviation of the averaged measurements.

B1: library; a variant is named by its letters at N, in order (parent)
chain: GCUGUCACCGGUGUAUUACCCUAGUGGUCGACCGGUCUGAUGAGUCUNNNNNNAGACGAAACAGC

Key:
hypoxanthine [1] = variants of: B1; assay: normalized RNA/DNA level with ligand (relative to sTRSVctl = 100) (log10 (% of sTRSVctl)); ligand: hypoxanthine (xanthine aptamer); higher = less ribozyme self-cleavage, higher mRNA level; settings: ligand concentration (+) RNA-Seq: 5 mM, HEK293T, reporter: mCherry (pCS4076), ligand present: yes
How it was run: (§1)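 RNA level was computed as RNA reads over DNA reads divided by a spiked-in non-cleaving sequence or by the top sequences, then scaled and log-transformed. Scaling was ×100 with log10, the top group was 25 sequences, and the threshold was ≥100 DNA reads. The reads came from HEK293T cells transfected at 4 µg per 6-well well with ribozyme switch library plasmids (mCherry, or eGFP in some ligand experiments). Total RNA was extracted with EDTA 72 h after transfection, with any ligand added 1 h before it.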

hypoxanthine [2] = variants of: B1; assay: normalized RNA/DNA level without ligand (relative to sTRSVctl = 100) (log10 (% of sTRSVctl)); ligand: hypoxanthine (xanthine aptamer); higher = less ribozyme self-cleavage, higher mRNA level; settings: HEK293T, reporter: mCherry (pCS4076), ligand present: no
How it was run: as §1

Variant	normalized RNA/DNA level with ligand (log10) (hypoxanthine [1])	normalized RNA/DNA level without ligand (log10) (hypoxanthine [2])
GCUGUCACCGGUGUAUUACCCUAGUGGUCGACCGGUCUGAUGAGUCUCAAUCAAGACGAAACAGC [CAAUCA]	1.91 ± 0.069	1.77 ± 0.0087
GCUGUCACCGGUGUAUUACCCUAGUGGUCGACCGGUCUGAUGAGUCUUAAUCAAGACGAAACAGC [UAAUCA]	1.955 ± 0.019	1.886 ± 0.0084
GCUGUCACCGGUGUAUUACCCUAGUGGUCGACCGGUCUGAUGAGUCUGAAUCCAGACGAAACAGC [GAAUCC]	1.93 ± 0.067	1.898 ± 0.008
GCUGUCACCGGUGUAUUACCCUAGUGGUCGACCGGUCUGAUGAGUCUUAAUCCAGACGAAACAGC [UAAUCC]	1.917 ± 0.015	1.84 ± 0.041
GCUGUCACCGGUGUAUUACCCUAGUGGUCGACCGGUCUGAUGAGUCUAAAUCCAGACGAAACAGC [AAAUCC]	1.94 ± 0.055	1.829 ± 0.0029
GCUGUCACCGGUGUAUUACCCUAGUGGUCGACCGGUCUGAUGAGUCUCAAUCGAGACGAAACAGC [CAAUCG]	1.98 ± 0.083	1.89 ± 0.019
GCUGUCACCGGUGUAUUACCCUAGUGGUCGACCGGUCUGAUGAGUCUCAAUCUAGACGAAACAGC [CAAUCU]	2.01 ± 0.059	1.85 ± 0.042
GCUGUCACCGGUGUAUUACCCUAGUGGUCGACCGGUCUGAUGAGUCUGAAUCUAGACGAAACAGC [GAAUCU]	1.9 ± 0.069	1.9 ± 0.044
GCUGUCACCGGUGUAUUACCCUAGUGGUCGACCGGUCUGAUGAGUCUAAAUCUAGACGAAACAGC [AAAUCU]	1.94 ± 0.089	1.9 ± 0.039
GCUGUCACCGGUGUAUUACCCUAGUGGUCGACCGGUCUGAUGAGUCUCAAUGAAGACGAAACAGC [CAAUGA]	1.92 ± 0.038	1.82 ± 0.051
GCUGUCACCGGUGUAUUACCCUAGUGGUCGACCGGUCUGAUGAGUCUUAAUGAAGACGAAACAGC [UAAUGA]	1.91 ± 0.024	1.653 ± 0.0099
GCUGUCACCGGUGUAUUACCCUAGUGGUCGACCGGUCUGAUGAGUCUCAAUGCAGACGAAACAGC [CAAUGC]	1.95 ± 0.047	1.89 ± 0.029
GCUGUCACCGGUGUAUUACCCUAGUGGUCGACCGGUCUGAUGAGUCUUAAUGCAGACGAAACAGC [UAAUGC]	1.93 ± 0.023	1.823 ± 0.0029
GCUGUCACCGGUGUAUUACCCUAGUGGUCGACCGGUCUGAUGAGUCUUAAUGUAGACGAAACAGC [UAAUGU]	1.89 ± 0.045	1.599 ± 0.0059
GCUGUCACCGGUGUAUUACCCUAGUGGUCGACCGGUCUGAUGAGUCUAAAUGUAGACGAAACAGC [AAAUGU]	1.865 ± 0.013	1.633 ± 0.013
GCUGUCACCGGUGUAUUACCCUAGUGGUCGACCGGUCUGAUGAGUCUCAAUUCAGACGAAACAGC [CAAUUC]	1.93 ± 0.07	1.87 ± 0.058
GCUGUCACCGGUGUAUUACCCUAGUGGUCGACCGGUCUGAUGAGUCUUAAUUGAGACGAAACAGC [UAAUUG]	1.92 ± 0.051	1.74 ± 0.02
GCUGUCACCGGUGUAUUACCCUAGUGGUCGACCGGUCUGAUGAGUCUGAAUUUAGACGAAACAGC [GAAUUU]	1.964 ± 0.015	1.89 ± 0.022
GCUGUCACCGGUGUAUUACCCUAGUGGUCGACCGGUCUGAUGAGUCUCACAAAAGACGAAACAGC [CACAAA]	1.8939 ± 0.00066	1.76 ± 0.023
GCUGUCACCGGUGUAUUACCCUAGUGGUCGACCGGUCUGAUGAGUCUUACAAAAGACGAAACAGC [UACAAA]	1.88 ± 0.063	1.755 ± 0.0034
GCUGUCACCGGUGUAUUACCCUAGUGGUCGACCGGUCUGAUGAGUCUAACAAAAGACGAAACAGC [AACAAA]	1.91 ± 0.035	1.785 ± 0.017

Variant	normalized RNA/DNA level with ligand (log10) (hypoxanthine [1])	normalized RNA/DNA level without ligand (log10) (hypoxanthine [2])
GCUGUCACCGGUGUAUUACCCUAGUGGUCGACCGGUCUGAUGAGUCUCACAACAGACGAAACAGC [CACAAC]	1.93 ± 0.027	1.839 ± 0.018
GCUGUCACCGGUGUAUUACCCUAGUGGUCGACCGGUCUGAUGAGUCUGACAACAGACGAAACAGC [GACAAC]	1.93 ± 0.072	1.73 ± 0.021
GCUGUCACCGGUGUAUUACCCUAGUGGUCGACCGGUCUGAUGAGUCUUACAACAGACGAAACAGC [UACAAC]	1.97 ± 0.035	1.82 ± 0.081
GCUGUCACCGGUGUAUUACCCUAGUGGUCGACCGGUCUGAUGAGUCUAACAACAGACGAAACAGC [AACAAC]	1.899 ± 0.015	1.8557 ± 0.001
GCUGUCACCGGUGUAUUACCCUAGUGGUCGACCGGUCUGAUGAGUCUCACAAGAGACGAAACAGC [CACAAG]	1.877 ± 0.0098	1.676 ± 0.013
GCUGUCACCGGUGUAUUACCCUAGUGGUCGACCGGUCUGAUGAGUCUGACAAGAGACGAAACAGC [GACAAG]	1.83 ± 0.043	1.36 ± 0.018
GCUGUCACCGGUGUAUUACCCUAGUGGUCGACCGGUCUGAUGAGUCUCACAAUAGACGAAACAGC [CACAAU]	1.89 ± 0.053	1.78 ± 0.034
GCUGUCACCGGUGUAUUACCCUAGUGGUCGACCGGUCUGAUGAGUCUGACAAUAGACGAAACAGC [GACAAU]	1.897 ± 0.017	1.815 ± 0.013
GCUGUCACCGGUGUAUUACCCUAGUGGUCGACCGGUCUGAUGAGUCUCACACAAGACGAAACAGC [CACACA]	1.9 ± 0.036	1.78 ± 0.037
GCUGUCACCGGUGUAUUACCCUAGUGGUCGACCGGUCUGAUGAGUCUGACACAAGACGAAACAGC [GACACA]	1.934 ± 0.012	1.8467 ± 2.7e-05
GCUGUCACCGGUGUAUUACCCUAGUGGUCGACCGGUCUGAUGAGUCUUACACAAGACGAAACAGC [UACACA]	1.899 ± 0.0042	1.859 ± 0.012
GCUGUCACCGGUGUAUUACCCUAGUGGUCGACCGGUCUGAUGAGUCUCACACCAGACGAAACAGC [CACACC]	1.99 ± 0.035	1.929 ± 0.0057
GCUGUCACCGGUGUAUUACCCUAGUGGUCGACCGGUCUGAUGAGUCUUACACCAGACGAAACAGC [UACACC]	1.961 ± 0.0059	1.9 ± 0.027
GCUGUCACCGGUGUAUUACCCUAGUGGUCGACCGGUCUGAUGAGUCUCACACGAGACGAAACAGC [CACACG]	1.96 ± 0.032	1.861 ± 0.017
GCUGUCACCGGUGUAUUACCCUAGUGGUCGACCGGUCUGAUGAGUCUUACACGAGACGAAACAGC [UACACG]	1.87 ± 0.035	1.63 ± 0.02
GCUGUCACCGGUGUAUUACCCUAGUGGUCGACCGGUCUGAUGAGUCUGACACUAGACGAAACAGC [GACACU]	1.912 ± 0.0036	1.905 ± 0.008
GCUGUCACCGGUGUAUUACCCUAGUGGUCGACCGGUCUGAUGAGUCUAACACUAGACGAAACAGC [AACACU]	1.92 ± 0.044	1.859 ± 0.018
GCUGUCACCGGUGUAUUACCCUAGUGGUCGACCGGUCUGAUGAGUCUCACAGAAGACGAAACAGC [CACAGA]	1.97 ± 0.05	1.847 ± 0.015
GCUGUCACCGGUGUAUUACCCUAGUGGUCGACCGGUCUGAUGAGUCUCACAGCAGACGAAACAGC [CACAGC]	1.9491 ± 1.9e-05	1.87 ± 0.044
GCUGUCACCGGUGUAUUACCCUAGUGGUCGACCGGUCUGAUGAGUCUAACAGCAGACGAAACAGC [AACAGC]	1.94 ± 0.036	1.83 ± 0.05
GCUGUCACCGGUGUAUUACCCUAGUGGUCGACCGGUCUGAUGAGUCUCACAGGAGACGAAACAGC [CACAGG]	1.77 ± 0.089	1.26 ± 0.06
